In paper PMC5532383:

Target: PPI peptide (…) in complex with pMHC-CD8wt monomer (HLA-A02:01)
Test: micropipette adhesion frequency assay; biotinylated pMHC monomers on streptavidin-coated biotinylated RBCs brought into contact with single CTL clones; adhesion frequency against contact time, equilibrium at 4 s; 2D affinity AcKa in μm^4; room temperature (main figures) and 37°C (supplement)

2D affinity (AcKa): 1e-06 μm^4
Substance: CD8 co-receptor on human HCV-specific CTL clones (from UniProt P01732 22-235; P10966 22-210)
